The values that follow come from US20070231333A1, “ANTI-5T4 ANTIBODIES AND USES THEREOF” (Wyeth, priority 2006, published 2007).

Test [1] addresses T1, 5T4-expressing PC14PE6 cells (Homo sapiens, UniProt Q13641).
T1 construct: endogenous in cells; host or cells: PC14PE6 cells
T1 sequence (Q13641 32-420): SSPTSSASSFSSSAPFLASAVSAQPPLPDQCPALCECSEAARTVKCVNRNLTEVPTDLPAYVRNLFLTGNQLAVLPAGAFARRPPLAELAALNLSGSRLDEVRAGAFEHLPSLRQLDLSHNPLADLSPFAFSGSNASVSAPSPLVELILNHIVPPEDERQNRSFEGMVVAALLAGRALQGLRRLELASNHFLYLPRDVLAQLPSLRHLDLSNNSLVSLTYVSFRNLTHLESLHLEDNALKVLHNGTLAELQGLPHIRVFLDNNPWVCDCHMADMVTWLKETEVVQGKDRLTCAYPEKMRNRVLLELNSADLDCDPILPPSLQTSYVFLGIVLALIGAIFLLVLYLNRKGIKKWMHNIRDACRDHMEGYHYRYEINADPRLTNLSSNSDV
In words: FACS binding to 5T4-expressing PC14PE6 cells. It counts as cell-based. On the procedure:
The ability of the H8, A1, A2, and A3 antibodies to bind cells expressing 5T4 antigen was assayed using fluorescence activated cell sorting (FACS) of PC14PE6 cells.
Background: In flow cytometry, cells or beads pass a laser one at a time.

In test [2] the test system is chimpanzee 5T4 ectodomain Fc. In words: Epitope mapping ELISA, 5T4 ectodomain Fc fusions. It counts as binding. More on the design: key: +: binding; −: no binding; +/−: partial binding. On the procedure: (§1) To identify the epitopes to which each of the A1, A2, A3, and H8 antibodies bind, ELISA assays were performed using (1) 5T4 ectodomain Fc constructs with deleted or mutated sequences, and (2) 5T4 chimera constructs transiently expressed in COS-1 cells. The ectodomain includes the amino-terminal region, two leucine-rich repeats, and the intervening hydrophilic region. Fusion proteins containing a 5T4 ectodomain and a Fc constant regions from human IgG1 were prepared using mouse 5T4 (amino acids 1-361), rat 5T4 (amino acids 1-361), cynomologous monkey 5T4 (amino acids 1-355), chimpanzee 5T4 (amino acids 1-355), and black-tailed marmoset (amino acids 1-355). The 5T4 chimera constructs are depicted in FIG. 5. The binding results are summarized in Table 5, which indicates specific binding, partial binding, or lack of binding, by each of the H8, A1, A2, and A3 antibodies.
(An ELISA detects its analyte on a solid surface through an enzyme-linked reagent.)

A further test deals with T2, rat 5T4 ectodomain Fc (Rattus norvegicus, UniProt Q5PQV5).
T2 construct: rat 5T4 (amino acids 1-361); made in house; host or cells: COS-1 cells (transient)
T2 sequence (Q5PQV5 32-361): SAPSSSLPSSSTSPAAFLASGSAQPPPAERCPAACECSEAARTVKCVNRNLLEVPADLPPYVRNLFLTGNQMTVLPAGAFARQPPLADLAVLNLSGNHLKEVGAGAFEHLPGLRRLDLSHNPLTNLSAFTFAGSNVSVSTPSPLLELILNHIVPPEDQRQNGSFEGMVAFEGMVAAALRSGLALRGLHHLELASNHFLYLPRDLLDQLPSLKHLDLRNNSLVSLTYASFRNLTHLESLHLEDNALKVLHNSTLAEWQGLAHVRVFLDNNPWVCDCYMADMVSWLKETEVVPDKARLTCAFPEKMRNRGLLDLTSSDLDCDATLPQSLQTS
Put plainly: Epitope mapping ELISA, 5T4 ectodomain Fc fusions. The class given is binding. Set-up: key: +: binding; −: no binding; +/−: partial binding. On the procedure:
as §1

Another test has as its target T3, human 5T4 ectodomain Fc (Homo sapiens, UniProt Q13641).
T3 construct: Human; 100; 1-355; made in house; host or cells: COS-1 cells (transient)
T3 sequence (Q13641 32-355): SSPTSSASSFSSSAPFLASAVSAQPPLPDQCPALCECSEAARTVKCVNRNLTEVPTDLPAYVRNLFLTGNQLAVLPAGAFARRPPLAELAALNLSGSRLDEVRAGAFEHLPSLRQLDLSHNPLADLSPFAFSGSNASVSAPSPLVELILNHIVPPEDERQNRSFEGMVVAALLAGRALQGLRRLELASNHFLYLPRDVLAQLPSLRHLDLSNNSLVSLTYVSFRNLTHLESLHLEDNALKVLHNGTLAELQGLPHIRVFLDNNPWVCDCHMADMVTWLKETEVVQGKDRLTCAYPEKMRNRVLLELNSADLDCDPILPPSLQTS
In words: Epitope mapping ELISA, 5T4 ectodomain Fc fusions. It counts as binding. More on the design: key: +: binding; −: no binding; +/−: partial binding. On the procedure: as §1

B1: A2: murine anti-5T4 monoclonal antibody (IgG2b heavy chain); VH residues 19-135 of SEQ ID NO:6, VL residues 23-130 of SEQ ID NO:8 (antibody, listed as Mus musculus, V domains shown)
VH: MEWRIFLFILSGTAGVHSQVQLQQSRPELVKPGASVKMSCKASGYTFTDYVISWVKQRTGQGLEWIGEIYPGSNSIYYNEKFKGRATLTADKSSSTAYMQLSSLTSEDSAVYFCAMGGNYGFDYWGQGTTLTVSS
VL: MDFQVQIFSFLLISASVIMSRGQIVLTQSPAIMSASLGERVTLTCTASSSVNSNYLHWYQQKPGSSPKLWIYSTSNLASGVPARFSGSGSGTSYSLTISSMEAEDAATYYCHQYHRSPLTFGAGTKLELK
modifications: (1)..(18) leader sequence; (19)..(135) heavy chain variable region; (44)..(53) CDR1; (68)..(84) CDR2; (117)..(124) CDR3; (1)..(22) leader sequence; (23)..(130) light chain variable region; (46)..(56) CDR1; (73)..(79) CDR2; (112)..(120) CDR3
B1: the “binding to 5T4-expressing PC14PE6 cells (in words)” value in test [1] is reported as “significantly lower”. Further, the “binding to 5T4 antigen construct” value in test [2] is “+”; in the test with rat 5T4 ectodomain Fc it was “−”; with human 5T4 ectodomain Fc it was “+”.
